What all share (test): G' assay
Test [1] addresses T1, GST-AIPC PDZ domain 1 (Homo sapiens (Human)), O15018.
T1 chain: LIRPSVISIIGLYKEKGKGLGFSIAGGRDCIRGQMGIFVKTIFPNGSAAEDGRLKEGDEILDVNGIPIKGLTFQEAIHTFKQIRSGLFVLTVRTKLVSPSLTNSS

The target of test [2] is GST-Atrophin-1 Interacting Protein PDZ domain 3 (Rattus norvegicus (Rat)), O88382.
In test [3] the target is GST-Atrophin-1 Interacting Protein PDZ domain 5 (Rattus norvegicus (Rat)), O88382.
Test [4] addresses GST-BAI-1 Associated Protein PDZ domain 2 (Mus musculus (Mouse)), Q6RHR9.
The target in test [5] is T2, GST-FLJ 10324 PDZ domain 1 [GST: P08515].
T2 chain: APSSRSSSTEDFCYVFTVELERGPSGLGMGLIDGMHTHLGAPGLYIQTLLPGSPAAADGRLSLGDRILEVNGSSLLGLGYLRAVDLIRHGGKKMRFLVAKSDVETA

Test [6] addresses T3, GST-FLJ00011 PDZ domain 1 (Homo sapiens (Human)), Q9H5P4.
T3 chain: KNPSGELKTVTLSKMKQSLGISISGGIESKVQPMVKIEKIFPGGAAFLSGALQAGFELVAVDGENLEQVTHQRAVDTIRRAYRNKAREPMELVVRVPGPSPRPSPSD

For test [7], the target named is T4, GST-INADL PDZ domain 3 (Homo sapiens (Human)), Q8NI35.
T4 chain: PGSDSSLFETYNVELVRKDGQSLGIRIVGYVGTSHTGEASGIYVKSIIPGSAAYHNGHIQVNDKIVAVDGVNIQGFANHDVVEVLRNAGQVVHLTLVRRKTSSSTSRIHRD

For test [8], the target named is T5, GST-KIAA0807(S) PDZ domain 1 (Homo sapiens (Human)), Q6P0Q8.
T5 chain: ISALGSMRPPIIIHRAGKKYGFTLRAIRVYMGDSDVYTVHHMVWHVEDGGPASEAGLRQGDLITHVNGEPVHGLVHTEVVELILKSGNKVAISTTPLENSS

Test [9] has as its target T6, GST-KIAA1526 PDZ domain 1 (Homo sapiens (Human)), Q9P202.
T6 chain: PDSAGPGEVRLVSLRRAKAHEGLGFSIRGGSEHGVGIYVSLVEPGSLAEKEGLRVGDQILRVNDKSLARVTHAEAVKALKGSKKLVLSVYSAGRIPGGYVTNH

For test [10], the target named is GST-KIAA1634 PDZ domain 5 (Homo sapiens (Human)), Q5TCQ9.
The target in test [11] is GST-KIAA807 [GST: P08515].
The target in test [12] is T7, GST-LIM Mystique PDZ domain 1 (Homo sapiens (Human)), Q96JY6.
T7 chain: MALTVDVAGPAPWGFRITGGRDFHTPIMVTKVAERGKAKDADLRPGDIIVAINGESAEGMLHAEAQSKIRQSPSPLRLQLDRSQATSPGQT

In test [13] the target is T8, GST-LIM-RIL PDZ domain 1 (Homo sapiens (Human)), P50479.
T8 chain: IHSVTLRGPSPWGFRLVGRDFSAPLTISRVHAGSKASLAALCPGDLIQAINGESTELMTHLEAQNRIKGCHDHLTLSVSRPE

In test [14] the target is T9, GST-Outer Membrane PDZ domain 1 (Homo sapiens (Human)), P57105.
T9 chain: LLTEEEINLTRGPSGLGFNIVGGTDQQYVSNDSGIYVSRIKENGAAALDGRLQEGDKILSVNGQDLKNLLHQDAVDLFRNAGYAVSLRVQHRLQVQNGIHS

The target in test [15] is T10, GST-PTPL1 PDZ domain 2 (Homo sapiens (Human)), Q12923.
T10 chain: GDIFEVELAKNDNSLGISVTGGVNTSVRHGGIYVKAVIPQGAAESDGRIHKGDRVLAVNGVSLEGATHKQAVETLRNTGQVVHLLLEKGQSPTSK

The target of test [16] is T11, GST-Syntrophin gamma 1 PDZ domain 1 (Homo sapiens (Human)), Q9NSN8.
T11 chain: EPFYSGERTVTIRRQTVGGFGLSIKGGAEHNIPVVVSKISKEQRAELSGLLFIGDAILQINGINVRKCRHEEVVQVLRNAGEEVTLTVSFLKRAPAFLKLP

Test [17] deals with T12, GST-APXL-1 PDZ domain 1 (Homo sapiens (Human)), Q13796.
T12 chain: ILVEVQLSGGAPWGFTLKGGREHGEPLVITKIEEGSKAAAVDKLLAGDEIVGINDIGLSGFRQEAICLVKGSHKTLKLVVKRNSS

Test [18] deals with T13, GST-KIAA0382 PDZ domain 1 (Canis lupus familiaris (Dog) (Canis familiaris)), A0A8I3.
T13 chain: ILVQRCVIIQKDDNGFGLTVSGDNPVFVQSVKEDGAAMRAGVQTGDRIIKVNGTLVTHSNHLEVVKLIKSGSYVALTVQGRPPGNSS

For test [19], the target named is T14, GST-MINT1 PDZ domain 2 (Mus musculus (Mouse)), B2RUJ5.
T14 chain: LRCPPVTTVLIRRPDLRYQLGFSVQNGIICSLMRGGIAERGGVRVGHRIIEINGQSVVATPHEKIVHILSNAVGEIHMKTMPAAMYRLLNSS
Also: key of the grades not given here.

GST-KIAA1634 PDZ domain 5 (Homo sapiens (Human)), Q5TCQ9, sequence (Q5TCQ9 other isoform, or with tags, fused parts or gaps): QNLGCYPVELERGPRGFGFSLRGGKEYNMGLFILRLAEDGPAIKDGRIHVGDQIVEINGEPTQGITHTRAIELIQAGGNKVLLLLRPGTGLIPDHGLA
GST-Atrophin-1 Interacting Protein PDZ domain 3 (Rattus norvegicus (Rat)), O88382, sequence (O88382 774-865, tags or fused parts left off): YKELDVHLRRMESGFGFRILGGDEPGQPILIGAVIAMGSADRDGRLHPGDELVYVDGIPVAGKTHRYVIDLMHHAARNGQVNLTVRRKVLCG
GST-BAI-1 Associated Protein PDZ domain 2 (Mus musculus (Mouse)), Q6RHR9, sequence (Q6RHR9 455-558): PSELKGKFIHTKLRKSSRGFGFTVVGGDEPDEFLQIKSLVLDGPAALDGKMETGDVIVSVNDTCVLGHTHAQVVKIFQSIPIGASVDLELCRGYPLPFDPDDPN
GST-KIAA807 [GST: P08515], sequence (P08515 whole entry, the tested form may be a part): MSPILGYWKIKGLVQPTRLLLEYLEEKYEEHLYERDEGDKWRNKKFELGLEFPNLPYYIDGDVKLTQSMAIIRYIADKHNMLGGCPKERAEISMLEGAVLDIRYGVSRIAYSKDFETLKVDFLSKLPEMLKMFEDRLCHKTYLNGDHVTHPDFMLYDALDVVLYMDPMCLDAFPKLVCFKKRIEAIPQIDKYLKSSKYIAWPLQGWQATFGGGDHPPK
GST-Atrophin-1 Interacting Protein PDZ domain 5 (Rattus norvegicus (Rat)), O88382, sequence (O88382 1128-1225): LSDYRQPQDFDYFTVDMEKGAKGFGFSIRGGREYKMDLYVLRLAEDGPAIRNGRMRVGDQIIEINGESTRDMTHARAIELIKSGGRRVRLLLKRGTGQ

For the molecule QISPGGLEPPSEKHFRETEV (modifications not checked) [TAX], the Classification came to 1 A450 class in [1]; 1 A450 class in test [2]; 3 A450 class in test [3]; 5 A450 class in test [4]; 1 A450 class in test [5]; 1 A450 class in test [6]. In addition, the Classification was 1 A450 class in [7]; 5 A450 class in test [8]; 3 A450 class in test [9]; 1 A450 class in test [10]; 5 A450 class in [11]; 1 A450 class in test [12]. Further, the Classification was 1 A450 class in test [13], 5 A450 class in test [14], 2 A450 class in test [15] and 5 A450 class in test [16].
TQGFPGPATWRRISSLESEV (modifications not checked) [NMDA Glutamate Receptor 2C (cysteine-free)]: the Classification in test [1] is 3 A450 class; in test [17], 1 A450 class; in test [2], 2 A450 class; in test [3], 5 A450 class; in [4] it was 4 A450 class; in test [6], 2 A450 class. Also, the Classification stood at 2 A450 class in test [7]; 1 A450 class in test [18]; 5 A450 class in test [8]; 3 A450 class in [9]; 1 A450 class in [10]; 4 A450 class in test [11]. Further, the Classification in test [12] turned out to be 4 A450 class; in test [13] it was 5 A450 class; in test [19] it was 1 A450 class; in [14], 5 A450 class; in [15], 5 A450 class; in test [16] it was 4 A450 class.

(Values after patent publication US20050282743A1, “Molecular interactions in cells” (Arbor Vita Corporation, priority 2001, published 2005).)
